From US20160193316A1 (priority 1994, published 2016) come the findings set out here.

The target of one experiment is HLA-A*0201 (Homo sapiens, UniProt P04439, D140Y/D185E/D98H/E176V/E277Q/G131W/G231S/I119V/I121R/I166T/I218V/L300P/L318F/N151K/N90K/P208A/P217A/Q86G/Q94H/R138H/R169H/T345S). Put plainly: HLA class I peptide binding assay.
A further experiment deals with T1, DRB1*0401 (DR4w4) (Homo sapiens, UniProt P01903+P01911, A100K/A169T/F76Y/I96L/K127E/L162R/M171V/N62H/P40V/Q125Y/R42H/S133A/S149N/S66Y/V115G/V209L/W38E).
T1 construct: endogenous in cells; host or cells: Preiss
T1 sequence (P01903 26-254 partner, other chains not shown): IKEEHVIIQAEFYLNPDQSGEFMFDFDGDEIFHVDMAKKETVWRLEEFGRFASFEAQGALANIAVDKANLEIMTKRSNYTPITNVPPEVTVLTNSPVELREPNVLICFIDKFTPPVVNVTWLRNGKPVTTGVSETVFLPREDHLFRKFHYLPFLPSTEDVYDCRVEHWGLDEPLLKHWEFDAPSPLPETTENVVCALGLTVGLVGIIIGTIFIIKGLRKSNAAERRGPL
Put plainly: HLA class II peptide binding assay. To be noted: Table XIXb; DR4w4.

Another experiment has as its target T2, DRB1*0802 (DR8w2) (Homo sapiens, UniProt P01903+P01911, A100R/A103L/A169T/F76Y/H45Y/I96F/K41T/L162R/M171V/P40S/Q125H/Q178H/Q39Y/Q99D/R218S/R42G/S66Y/V115G/W38E).
T2 construct: endogenous in cells; host or cells: OLL
As to the kind of experiment: biochemical. The format is binding.

The next experiment addresses T3, DRB1*1201 (DR5w12) (Homo sapiens, UniProt P01903+P01911, A100R/A169T/D57E/D86V/F55L/H45Y/K41T/L162R/M171V/P40S/Q125H/Q178H/Q39Y/Q99D/R42G/S66L/T262R/V114A/V67L/W38E/Y59H/Y61H/Y89S).
T3 construct: endogenous in cells; host or cells: Herluf
As to the kind of experiment: HLA class II peptide binding assay. Particulars: Table XIXb; DR5w12.

In another experiment the target is T4, DRB1*0101 (DR1) (Homo sapiens, UniProt P01903+P01911, A100R/D57E/F55L/F60I/F76Y/I96L/L162R/M171V/P40L/Q125E/R42F/V115G/Y59C).
T4 construct: endogenous in cells; host or cells: LG2
T4 sequence (P01903 26-254 partner, other chains not shown): as above
Put plainly: HLA class II peptide binding assay. To be noted: Table XIXb, Malaria Super Motif Peptides With Binding Data; DR1.

The target of another experiment is T5, DRB1*0301 (DR3) (Homo sapiens, UniProt P01903+P01911, A100K/A102G/A103R/A169T/F55Y/I96L/K41T/L162R/M171V/P40S/Q125H/Q178H/Q39Y/R42S/S66N/T106N/T262R/W38E/Y61H).
T5 construct: endogenous in cells; host or cells: MAT
Put plainly: HLA class II peptide binding assay (pH 4.5). To be noted: for DR3 binding information: unit not given.

A further experiment deals with T6, DRB1*0405 (DR4w15) (Homo sapiens, UniProt P01903+P01911, A100R/A169T/D86S/F76Y/I96L/K127E/L162R/M171V/N62H/P40V/Q125Y/R42H/S133A/S149N/S66Y/V115G/V209L/W38E).
T6 construct: endogenous in cells; host or cells: KT3
As to the kind of experiment: HLA class II peptide binding assay. To be noted: Table XIXb; DR4w15.

For another experiment, the target named is T7, DRB1*0701 (DR7) (Homo sapiens, UniProt P01903+P01911, A100R/A102G/A103Q/D57E/D86V/E43K/F76Y/K127E/L162R/M171V/P40G/Q125H/Q99D/R33Q/R42Y/R54Q/S133A/S66F/T210M/V115G/Y107V/Y59L/Y89S).
T7 construct: endogenous in cells; host or cells: Pitout
Put plainly: biochemical. The format is binding.

Another experiment addresses T8, DRB1*0901 (DR9) (Homo sapiens, UniProt P01903+P01911, A100R/A103E/D57H/D86V/F55Y/F60I/F76Y/I96F/K127E/L162R/M171V/P40D/Q125H/Q99R/R33Q/R42F/S133A/S66N/T210M/V115G/W38K/Y107V/Y59G/Y89S).
T8 construct: endogenous in cells; host or cells: HID
Put plainly: biochemical. The format is binding.

The target in a further experiment is T9, DRB1*1101 (DR5w11) (Homo sapiens, UniProt P01903+P01911, A100R/A169T/A87E/I96F/K41T/L162R/M171V/P40S/Q125H/Q178H/Q39Y/Q99D/R42S/S66Y/T262R/V115G/W38E).
T9 construct: endogenous in cells; host or cells: Sweig
T9 sequence (P01903 26-254, other chains not shown): as the sequence (P01903 26-254 partner, other chains not shown) above
Put plainly: biochemical. The format is binding.

A further experiment concerns the target T10, DRB1*1302 (DR6w19) (Homo sapiens, UniProt P01903+P01911, A100E/A169T/K41T/L162R/M171V/P40S/Q125H/Q178H/Q39Y/Q99D/R42S/S66N/T262R/V115G/W38E/Y61H).
T10 construct: endogenous in cells; host or cells: H0301
Put plainly: HLA class II peptide binding assay. Particulars: Table XIXb; DR6w19.

The target in a further experiment is T11, DRB1*1501 (DR2w2β1) (Homo sapiens, UniProt P01903+P01911).
T11 construct: expressed in transfected cells; host or cells: L466.1 (fibroblasts)
Put plainly: HLA class II peptide binding assay. Particulars: Table XIXb; DR2w2β1.

The target of another experiment is T12, DRB4*0101 (DRw53) (Homo sapiens, UniProt P01903+P13762, G164S).
T12 construct: expressed in transfected cells; host or cells: L257.6 (fibroblasts)
As to the kind of experiment: HLA class II peptide binding assay (pH 5.0). Particulars: Table XIXb; DRw53.

The next experiment deals with T13, DRB5*0101 (DR2w2β2) (Homo sapiens, UniProt P01903+Q30154).
T13 construct: expressed in transfected cells; host or cells: L416.3 (fibroblasts) or GM3107
The format is binding.

The target in another experiment is T14, HLA-B*0702 (Homo sapiens, UniProt P01889).
T14 construct: endogenous in cells; host or cells: GM3107
As to the kind of experiment: HLA class I peptide binding assay. Particulars: Malaria B07 super motif peptides; binding value, no unit.

The mark [1] stands for this setting: Malaria A02 motif peptides, Table VIII, unit not given.

Where two headings read alike, the source gives them in different places.

T10 sequence (P01903 26-254, other chains not shown): as the sequence (P01903 26-254 partner, other chains not shown) above

For the sequence VIGPFMKAV, the “A*0201 (binding information)” value with HLA-A*0201 (setting [1]) is 0.0004. In the experiment with DRB1*0401 (DR4w4), this sequence gave a DR4w4 binding data of -0.0020. Also, the DR8w2 binding data in the experiment with DRB1*0802 (DR8w2) was found to be 0.0230. For the same sequence, in the experiment with DRB1*1201 (DR5w12), the DR5w12 binding data came out at 0.0920.
As for WVNHAVPLA, the “A*0201 (binding information)” value in the experiment with HLA-A*0201 (setting [1]) was 0.0008. In the experiment with DRB1*0101 (DR1), this sequence displayed a DR1 binding data of 0.1900. The same sequence showed a DR3 binding data with DRB1*0301 (DR3) (Table XIXb, DR3) of 0.4000. Moreover, in the experiment with DRB1*0401 (DR4w4), the DR4w4 binding data amounted to 5.0000. The same sequence displayed a DR4w15 binding data with DRB1*0405 (DR4w15) of 0.0360. In the experiment with DRB1*0701 (DR7), this sequence returned a DR7 binding data of 0.4400. In the experiment with DRB1*0802 (DR8w2), this sequence displayed a DR8w2 binding data of 1.8000. This sequence had a DR9 binding data with DRB1*0901 (DR9) of 4.6000. The DR5w11 binding data with DRB1*1101 (DR5w11) is 0.0079. Moreover, in the experiment with DRB1*1201 (DR5w12), the DR5w12 binding data is on record as 0.0240. This sequence registered a DR6w19 binding data with DRB1*1302 (DR6w19) of 0.8900. This sequence had a DR2w2β1 binding data with DRB1*1501 (DR2w2β1) of 0.0350. Further, in the experiment with DRB4*0101 (DRw53), the DRw53 binding data is recorded as 0.0430. Besides, the DR2w2β2 binding data with DRB5*0101 (DR2w2β2) is 0.1600.
Regarding AMICLIQQLNL, in the experiment with HLA-A*0201 (setting [1]), the “A*0201 (binding information)” value is 0.0006.
As to ALLQVRKHL, in the experiment with HLA-A*0201 (setting [1]), the “A*0201 (binding information)” value was 0.0010. In the experiment with DRB1*0301 (DR3) (Malaria DR3b motif peptides), this sequence yielded a DR3 binding information of -0.0033.
Regarding QLVVILIDGI, in the experiment with HLA-A*0201 (setting [1]), the “A*0201 (binding information)” value was determined as 0.0002.
Regarding MPNDPNRNV, the “B*0702 (binding information)” value on HLA-B*0702 was determined as 0.0001. At DRB1*0301 (DR3) (DR3a motif peptides, exemplary 15-mer containing the core sequence), this sequence came in with a DR3 binding information of -0.0033.
Regarding ILSVSSFLFV, the “A*0201 (binding information)” value on HLA-A*0201 worked out at 0.0300.
DPNRNVDBIA (EQPQGDDNNL): the “B*0702 (binding information)” value in the experiment with HLA-B*0702 is 0.0002.
Consider LLGGVCLVL, for which the “A*0201 (binding information)” value in the experiment with HLA-A*0201 (setting [1]) was 0.0038.
As to GPFMKAVCV, the “B*0702 (binding information)” value at HLA-B*0702 worked out at 0.0023.
Take SVLACLLGNV: in the experiment with HLA-A*0201 (setting [1]), the “A*0201 (binding information)” value came out at 0.0022.
